Assay results: article PMC8092405 (Proceedings of the National Academy of Sciences of the …, 2021)
Each block holds one binder with its values, some of them ahead of it.

Biological target: human G protein-coupled receptor 182 (GPR182) (human, UniProt O15218 1-404)
Sequence (O15218 whole entry): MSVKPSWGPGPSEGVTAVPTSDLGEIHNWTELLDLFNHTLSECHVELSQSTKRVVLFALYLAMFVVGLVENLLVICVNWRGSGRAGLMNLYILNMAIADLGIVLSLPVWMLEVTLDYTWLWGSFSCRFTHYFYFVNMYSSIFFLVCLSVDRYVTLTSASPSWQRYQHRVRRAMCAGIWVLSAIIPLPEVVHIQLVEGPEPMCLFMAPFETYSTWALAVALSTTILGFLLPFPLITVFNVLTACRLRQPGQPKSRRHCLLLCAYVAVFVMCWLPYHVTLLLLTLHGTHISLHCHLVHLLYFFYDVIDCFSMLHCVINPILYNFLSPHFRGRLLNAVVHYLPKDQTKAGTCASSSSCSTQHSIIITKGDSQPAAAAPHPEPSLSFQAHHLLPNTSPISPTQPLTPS

Ki: 260 nM
B1: human CCL19, unlabeled (ligand)
chain: GTNDAEDCCLSVTQKPIPGYIVRNFHYLLIKDGCRVPAVVFTTLRGRQLCAPPDQPWVERIIQRLQRTSAKMKRRSS

Ki: 9 nM
B2: human CXCL13, unlabeled (ligand)
chain: VLEVYYTSLRCRCVQESSVFIPRRFIDRIQILPRGNGCPRKEIIVWKKNKSIVCVDPQAEWIQRMMEVLRKRSSSTLPVPVFKRKIP
